# Laboratory results as given in publication PMC11077437, “Scrutiny of chimeric antigen receptor activation by the extracellular domain: experience with single domain antibodies targeting multiple myeloma cells highlights the need for case-by-case optimization” (Frontiers in Immunology, 2024).
# How the values were obtained:
# [1] = molecular target: T1, human CS1 on CS1pos OPM2 multiple myeloma cells (Homo sapiens, OPM2 myeloma cells, UniProt Q9NQ25); test: cell-based or functional assay
# [2] = molecular target: T2, recombinant human CS1 protein (CS1-(his)C) (Homo sapiens, UniProt Q9NQ25); test: SPR; Biacore T200; recombinant CS1 amine-coupled on a CM5 chip; VHH 100 nM to 3.125 nM in HBS pH 7.4, 25°C; association 180 s, dissociation 300 s; fit '1:1 binding with drift and RI2'; n=1; details: both partners purified
# T2 construct: CS1 (SLAMF7, CD319), human, the extracellular portion; also called huCS1; SLAMF7; source: HEK293-E 253 cells, transiently transfected, purified from the supernatant (IMAC, SEC) by U Protein Express
# [3] = molecular target: T1, human CS1 on CS1pos OPM2 multiple …; test: flow cytometry on cells; purified VHH at 200 nM, 1 h at 4°C, on CS1pos OPM2 cells; detected by mouse anti-His IgG1 mAb and APC anti-mouse IgG1 mAb; ΔMFI against the non-targeting control VHH R3B23 at 200 nM; n=1; details: one partner purified
# [4] = molecular target: T3, recombinant murine CS1 protein (CS1-(his)C) (Mus musculus, strain , UniProt Q8BHK6); test: SPR; follow-up SPR on plate-coated muCS1 (Supplementary Figure 1); details: both partners purified
# T3 construct: CS1 (SLAMF7), murine, the extracellular portion; also called muCS1; source: HEK293-E 253 cells, transiently transfected, purified from the supernatant (IMAC, SEC) by U Protein Express
# T3 sequence (Q8BHK6 23-224): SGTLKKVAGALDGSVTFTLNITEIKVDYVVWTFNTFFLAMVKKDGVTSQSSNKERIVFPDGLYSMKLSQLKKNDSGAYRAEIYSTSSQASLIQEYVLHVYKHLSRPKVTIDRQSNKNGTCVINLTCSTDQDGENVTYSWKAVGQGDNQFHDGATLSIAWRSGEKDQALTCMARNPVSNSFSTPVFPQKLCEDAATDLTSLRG
# [5] = molecular target: T4, murine CS1 on muCS1pos 5T33vt cells (Mus musculus, 5T33vt myeloma cells, UniProt Q8BHK6); test: flow cytometry on cells; VHH on muCS1pos 5T33vt cells (Supplementary Figure 2); details: one partner purified
# T4 construct: CS1 (SLAMF7), murine, as expressed on 5T33vt cells; source: on murine CS1pos 5T33vt cells
# T4 sequence (Q8BHK6 23-333): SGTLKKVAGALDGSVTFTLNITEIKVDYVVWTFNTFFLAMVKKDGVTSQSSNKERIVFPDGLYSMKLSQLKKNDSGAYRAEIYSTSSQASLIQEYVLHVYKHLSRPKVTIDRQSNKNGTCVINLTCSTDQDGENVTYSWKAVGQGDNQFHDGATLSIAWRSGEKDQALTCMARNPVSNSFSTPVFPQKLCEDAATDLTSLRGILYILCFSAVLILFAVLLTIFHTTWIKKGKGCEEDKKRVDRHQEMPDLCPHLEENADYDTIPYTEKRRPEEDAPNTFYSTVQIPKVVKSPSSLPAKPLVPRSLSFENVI
# [6] = molecular target: T2, recombinant human CS1 protein …; test: SPR; Biacore T200; recombinant CS1 amine-coupled on a CM5 chip; VHH 100 nM to 3.125 nM in HBS pH 7.4, 25°C; association 180 s, dissociation 300 s; fit '1:1 binding with drift and RI2'; n=1; details: both partners purified; remark: listed apart in the source
# [7] = molecular target: T1, human CS1 on CS1pos OPM2 multiple …; test: flow cytometry on cells; purified VHH at 200 nM, 1 h at 4°C, on CS1pos OPM2 cells; detected by mouse anti-His IgG1 mAb and APC anti-mouse IgG1 mAb; ΔMFI against the non-targeting control VHH R3B23 at 200 nM; n=1; details: one partner purified; remark: listed apart in the source
Binder,"tumor uptake of the 99mTc-labelled VHH in subcutaneous CS1pos OPM2 tumors in mice, ex vivo at 90 min p.i. (n=3) [1]",Kd [2],koff [2],kon [2],ΔMFI [VHH] = 200 nM [3],binding result [4],binding result [5],binding result [6],binding result [7]
"VHH-61 (VHH, 99mTc-labelled on the His tag for the in vivo experiment; source: E. coli WK6 periplasm, purified (IMAC, SEC); not shown: His6, C-terminal, kept) VHH: DVQLVESGGGMVQPGGSLRLSCAASGFTFSSYGMSWVRQAPGKGPEWVSYINVGGGSTYYDDSVKGRFTISRDNAKNTLYLQMNSLKPEDTALYYCARGDPYSDHPQRTWGQGTQVTVSS",6.57 % IA/g,0.33 nM,8.1e-05 s⁻¹,250000 M⁻¹ s⁻¹,10.3,–,–,–,–
"VHH-63 (VHH, 99mTc-labelled on the His tag for the in vivo experiment; source: E. coli WK6 periplasm, purified (IMAC, SEC); not shown: His6, C-terminal, kept) VHH: DVQLVESGGGLVQPGGSLRLSCTVSGLTFSDYDMSWVRQAPGKGPEWVSFINTGGGSTYYDDSVKGRFTISRDNAKNTLYLQMDSLKPEDTALYYCARGDPYSDPKYWGQGTQVTVSS",1.03 % IA/g,9.8 nM,0.0019 s⁻¹,190000 M⁻¹ s⁻¹,3.37,–,–,–,–
"VHH-79 (VHH, source: E. coli WK6 periplasm, purified (IMAC, SEC); not shown: His6, C-terminal, kept) VHH: QVQLQESGGGLVQPGGSLRLSCAASGSIFSILAMAWYRQAPGKQRELVASITNGGSTNYADSVKGRFTISRDNDKNTVYLLMNSLKPEDTAVYYCNPRPMPWGTYDYWGQGTQVTVSS",–,–,–,–,–,binds,binds,no binding (tested: 100 nM),no binding (tested: 200 nM)
"VHH-78 (VHH, source: E. coli WK6 periplasm, purified (IMAC, SEC); not shown: His6, C-terminal, kept) VHH: QVQLQESGGGLVQPGGSLRLSCAASGSIFSILAMGWYRQAPGKQRELVASVTNGGSTNYADSVKGRFTISRDNAKNTVYLQMNSLKPEDTAVYYCNVRPYSDYDSWGHGTQVTVSS",–,–,–,–,–,binds,binds,no binding (tested: 100 nM),no binding (tested: 200 nM)
"VHH-17 (VHH, 99mTc-labelled on the His tag for the in vivo experiment; source: E. coli WK6 periplasm, purified (IMAC, SEC); not shown: His6, C-terminal, kept) VHH: DVQLVESGGGLVQPGDSLRLSCTASGFTFSNYPMSWVRQAPGKGPEWISHINTGGGSTYYADSVKGRFTISRDNAKNTLYLQMNSLKPEDTALYYCARGDPFKYSGSYLRGQGTQVTVSS",1.05 % IA/g,–,–,–,13,–,–,–,–
"VHH-29 (VHH, 99mTc-labelled on the His tag for the in vivo experiment; source: E. coli WK6 periplasm, purified (IMAC, SEC); not shown: His6, C-terminal, kept) VHH: DVQLVESGGGLVQPGGSLRLSCAASGFTFSSYAMSWVRQAPGKGPEWVSHINTGGGSTYYDDSVKGRFTISRDNAKNTLYLQMNSLKPEDTALYYCARGDPFDEYRYWGQGTQVTVSS",4.75 % IA/g,1.6 nM,0.00024 s⁻¹,150000 M⁻¹ s⁻¹,29.4,–,–,–,–
"VHH-53 (VHH, 99mTc-labelled on the His tag for the in vivo experiment; source: E. coli WK6 periplasm, purified (IMAC, SEC); not shown: His6, C-terminal, kept) VHH: DVQLVESGGGMVQPGGSLRLSCAASGFTFSSYDMSWVRQAPGKGPEWVSYINTGGGSTYYDDSVKGRFTISRDNAKNTLYLQMNSLKAEDTALYYCARGDPFQRPKYWGQGTQVTVSS",7.5 % IA/g,0.81 nM,0.0003 s⁻¹,370000 M⁻¹ s⁻¹,22.1,–,–,–,–
"VHH-71 (VHH, 99mTc-labelled on the His tag for the in vivo experiment; source: E. coli WK6 periplasm, purified (IMAC, SEC); not shown: His6, C-terminal, kept) VHH: DVQLVESGGGMVQPGGSLRLSCAASGFTFSSYDMSWVRQAPGKGPEWVSFINTGGGSTYYDDSVKGRFTISRDNAKNTLYLQMNSLKPEDTALYYCARGDPYSDPKYWGQGTQVTVSS",4.02 % IA/g,4.29 nM,0.0016 s⁻¹,372000 M⁻¹ s⁻¹,11.2,–,–,–,–
"VHH-56 (Table 1, the row between 53 and 57) (VHH, this is the second; source: E. coli WK6 periplasm, purified (IMAC, SEC); not shown: His6, C-terminal, kept) VHH: DVQLVESGGGLVQPGGSLRLSCAASGFTFSSYGMSWVRQAPGKGPEWVSHINTGGGSTYYADSVKGRFTISRDNAKNTLYLQMNSLKPEDTALYYCARGDPWGHDPSWGQGTQVTVSS",–,36.1 nM,0.01 s⁻¹,279000 M⁻¹ s⁻¹,4.72,–,–,–,–
"VHH-65 (VHH, source: E. coli WK6 periplasm, purified (IMAC, SEC); not shown: His6, C-terminal, kept) VHH: DVQLVESGGGMVQSGGSLRLSCAASGFTFSSYDMSWVRQAPGKGPEWVSYINTGGGSTYYDDSVKGRFTISRDNAKNTLYLQMNSLKAEDTALYYCARGDPFQRPKYWGQGTQVTVSS",–,2.32 nM,0.000979 s⁻¹,423000 M⁻¹ s⁻¹,11.4,–,–,–,–
"VHH-24 (VHH, source: E. coli WK6 periplasm, purified (IMAC, SEC); not shown: His6, C-terminal, kept) VHH: DVQLVESGGGMVQPGGSLRLSCAASGFTFSSYDMSWVRQAPGKGPEWVSHITTGGGSTHYDDSVKGRFTISRDNAKNTLYLQMNSLKPEDTALYYCARGDPFDSSRDWGQGTQVTVSS",–,4.7 nM,0.00047 s⁻¹,100000 M⁻¹ s⁻¹,20.6,–,–,–,–
"VHH-57 (VHH, 99mTc-labelled on the His tag for the in vivo experiment; source: E. coli WK6 periplasm, purified (IMAC, SEC); not shown: His6, C-terminal, kept) VHH: DVQLVESGGGMVQPGGSLRLSCAASGFTFSSYGMSWVRQAPGKGPEWVSHINTGGGSTYYADSVKGRFTISRDNAKNTLYLQMNSLKPEDTALYYCARGDPWGHDPSWGQGTQVTVSS",0.85 % IA/g,24.7 nM,0.0085 s⁻¹,350000 M⁻¹ s⁻¹,4.8,–,–,–,–
"VHH-51 (VHH, source: E. coli WK6 periplasm, purified (IMAC, SEC); not shown: His6, C-terminal, kept) VHH: DVQLVESGGGMVQPGGSLRLSCAASGFTFSSYDMSWVRLAPGKGPEWVSYINTGGGSTYYDDSVKGRFTISRDNAKNTLYLQMNSLKAEDTALYYCARGDPFQRPKYWGQGTQVTVSS",–,0.6 nM,0.00029 s⁻¹,490000 M⁻¹ s⁻¹,14.3,–,–,–,–
"VHH-22 (VHH, source: E. coli WK6 periplasm, purified (IMAC, SEC); not shown: His6, C-terminal, kept) VHH: DVQLVESGGGLVQPGGSLRLSCAASGFTFSSYDMSWVRQAPGKGPEWVSHITTGGGSTHYDDSVKGRFTISRDNAKNTLYLQMNSLKPEDTALYYCARGDPFDSSRDWGQGTQVTVSS",–,4 nM,0.00048 s⁻¹,120000 M⁻¹ s⁻¹,7.29,–,–,–,–
"VHH-28 (VHH, source: E. coli WK6 periplasm, purified (IMAC, SEC); not shown: His6, C-terminal, kept) VHH: DVQLVESGGGLVQPGGSLRLSCAASGFTLDDYAMSWVRQAPGKGPEWVSYINTGGGSTYYDDSVKGRFTISRDNAKNTLYLQMNSLKAEDTALYYCARGDPFQRPKYWGQGTQVTVSS",–,1.2 nM,0.00025 s⁻¹,210000 M⁻¹ s⁻¹,6.58,–,–,–,–
"VHH-6 (VHH, 99mTc-labelled on the His tag for the in vivo experiment; source: E. coli WK6 periplasm, purified (IMAC, SEC); not shown: His6, C-terminal, kept) VHH: DVQLVESGGGLVQAGGSLRLSCAASGRTFEDYFMAWFRQIPGKEREFVAAVGWNTGRGYYTDSVKGRFTISRDSAKNTLYLQMDSLKPEDTAVYYCNAPLQSLDRRLPGPYWGQGTQVTVSS",6.29 % IA/g,3.8 nM,0.00079 s⁻¹,210000 M⁻¹ s⁻¹,101,–,–,–,–
"VHH-73 (VHH, 99mTc-labelled on the His tag for the in vivo experiment; source: E. coli WK6 periplasm, purified (IMAC, SEC); not shown: His6, C-terminal, kept) VHH: DVQLVESGGGMVQSGGSLRLSCAASGFTFSSYDMSWVRQAPGKGPEWVSTINTGGSSTYYDDSVKGRFTISRDNAKNTLYLQMNSLKPEDTALYYCARGGPYSRDYWGQGTQVTVSS",0.52 % IA/g,35.8 nM,0.00254 s⁻¹,74400 M⁻¹ s⁻¹,1.35,–,–,–,–
